Test results as given in publication PMC5608357, “Identification of LAG3 high affinity aptamers by HT-SELEX and Conserved Motif Accumulation (CMA)”.

B1: LAG3 Apt1 (structured_RNA)
RNA: GGGAGAGAGAUAUAAGGGCCUCCUGAUACCCGCUGCUAUCUGGACCGAUCCCAUUACCAAAUUCUCUCCC
modifications: 2'-F-U, 2'-F-C
B2: LAG3 Apt1, biotinylated (structured_RNA)
RNA: GGGAGAGAGAUAUAAGGGCCUCCUGAUACCCGCUGCUAUCUGGACCGAUCCCAUUACCAAAUUCUCUCCC
modifications: 2'-F-U, 2'-F-C
B3: LAG3 Apt5 (structured_RNA)
RNA: GGGAGAGAGAUAUAAGGGUCUUGCCCAUCGACAAUAGAGCCCAGUCGCUGCCCAUUACCAAAUUCUCUCC
modifications: 2'-F-U, 2'-F-C
B4: LAG3 Apt4 (structured_RNA)
RNA: GGGAGAGAGAUAUAAGGGACCGAAUCUGGUUAAUCUGCCUCACGUUAGGCCCAUUACCAAAUUCUCUCCC
modifications: 2'-F-U, 2'-F-C
B5: LAG3 Apt2 (structured_RNA)
RNA: GGGAGAGAGAUAUAAGGGUCUUGCCUGAUGGAGUUGGAGAGGACCAUCACCCAUUACCAAAUUCUCUCCC
modifications: 2'-F-U, 2'-F-C

Tests used:
LAG3-Fc (rmLAG3-Fc) [1] = target: T1, LAG3-Fc (rmLAG3-Fc) (mouse, UniProt Q61790 24-442); experiment: filter binding; 2 mM Ca2+; Filter binding: 20 mM HEPES pH 7.4, 150 mM NaCl, 2 mM CaCl2, 37 C, 30 min; SPR: PBS, 0.005% Tween 20, pH 7.4, temperature not stated; settings: protein: recombinant; tags: human IgG2-Fc fusion; chain copies: 2; label: 32P (alpha-ATP)
LAG3-Fc (rmLAG3-Fc) [2] = target: T1, LAG3-Fc (rmLAG3-Fc); experiment: SPR; apparent Kd from equilibrium RU; printed kon 1x10^3, koff <2.1x10^-4 s-1 do not match it; Filter binding: 20 mM HEPES pH 7.4, 150 mM NaCl, 2 mM CaCl2, 37 C, 30 min; SPR: PBS, 0.005% Tween 20, pH 7.4, temperature not stated; settings: protein: recombinant; tags: human IgG2-Fc fusion; chain copies: 2

T1 sequence (Q61790 24-442): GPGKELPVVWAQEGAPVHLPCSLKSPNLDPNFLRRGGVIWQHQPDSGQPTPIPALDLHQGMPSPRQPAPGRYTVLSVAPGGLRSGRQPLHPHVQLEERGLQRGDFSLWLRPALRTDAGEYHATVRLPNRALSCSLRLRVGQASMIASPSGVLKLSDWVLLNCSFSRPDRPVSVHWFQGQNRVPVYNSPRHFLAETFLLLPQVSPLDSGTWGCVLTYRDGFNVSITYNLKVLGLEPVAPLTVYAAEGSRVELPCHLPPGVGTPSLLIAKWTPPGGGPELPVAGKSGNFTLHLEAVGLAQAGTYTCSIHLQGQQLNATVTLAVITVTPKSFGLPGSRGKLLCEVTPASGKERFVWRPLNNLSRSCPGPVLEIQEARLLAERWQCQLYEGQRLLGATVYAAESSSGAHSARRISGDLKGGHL

Binder	Kd (LAG3-Fc (rmLAG3-Fc) [1])	Kd (LAG3-Fc (rmLAG3-Fc) [2])
B1	20 nM	–
B2	–	2.7 nM
B3	200 nM	–
B4	100 nM	–
B5	50 nM	–
